Assay results published in doi:10.1101/2025.06.27.661840 (bioRxiv, 2025).
Like-named read-outs stand apart in the source and are kept apart here.

How the values were obtained:
Assay in all cases: cryo-EM structure
[1] = target: large tegument protein VP1/2 (ORF22) (Varicella-zoster virus (parental Oka strain, recombinant pOka-TK-RFP)) (UniProt P09278)
cryo-EM structure [2] = target: the molecule itself
cryo-EM structure [3] = target: the molecule itself; remark: listed apart in the source

Molecule “large tegument protein VP1/2 (ORF22), P09278 1-2763” has a stoichiometry N [1] of 2.

B1: VZV portal protein (pORF54) (natural protein, UniProt P09302 1-769, looked up)
chain: MAEITSLFNNSSGSEEKRIASSVSIDQGLNGSNPNDQYKNMFDIYWNEYAPDIGFCTFPEEDGWMLIHPTTQSMLFRKILAGDFGYTDGQGIYSAVRSTETVIRQVQATVLMNALDATRYEDLAADWEHHIQQCNLHAGALAERYGLCGESEAVRLAHQVFETWRQTLQSSLLEFLRGITGCLYTSGLNGRVGFAKYVDWIACVGIVPVVRKVRSEQNGTPAPLNTYMGQAAELSQMLKVADATLARGAAVVTSLVECMQNVAIMDYDRTRLYYNYNRRLIMAKDDVTGMKGECLVVWPPVVCGEGVVFDSPLQRLSGEVLACYALREHARVCQVLNTAPLRVLIGRRNEDDRSHSTRAVDRIMGENDTTRAGSAASRLVKLIVNLKNMRHVGDITETVRSYLEETGNHILEGSGSVDTSQPGFGKANQSFNGGAMSGTTNVQSAFKTSVVNSINGMLEGYVNNLFKTIEGLKDVNSDLTERLQFKEGELKRLREERVKIKPSKGSHITMAEETRIADLNHEVIDLTGIIGDDAYIANSFQSRYIPPYGDDIKRLSELWKQELVRCFKLHRVNNNQGQEISVSYSNASISLLVAPYFSFILRATRLGFLVTQSEVHRSEEELCQAIFKKARTESYLSQIRILYEMQVRAEVIKRGPRRTPSPSWGLPDPTEDDERIPEPNKINNQYMHVGYKNLSHFMKGHPPERLRVHKVNAADSTLLDKIRANRRRGDGRWDVRNKYTQHFRLQRNDRQLTNTSRRGVGCERRDRRS
With B1 the “stoichiometry N” value (cryo-EM structure [2]) was 12.

B2: capsid triplex protein 2 (TRX2; ORF41) (natural protein, UniProt P09291 1-316, looked up)
chain: MAMPFEIEVLLPGELSPAETSALQKCEGKIITFSTLRHRASLVDIALSSYYINGAPPDTLSLLEAYRMRFAAVITRVIPGKLLAHAIGVGTPTPGLFIQNTSPVDLCNGDYICLLPPVFGSADSIRLDSVGLEIVFPLTIPQTLMREIIAKVVARAVERTAAGAQILPHEVLRGADVICYNGRRYELETNLQHRDGSDAAIRTLVLNLMFSINEGCLLLLALIPTLLVQGAHDGYVNLLIQTANCVRETGQLINIPPMPRIQDGHRRFPIYETISSWISTSSRLGDTLGTRAILRVCVFDGPSTVHPGDRTAVIQV
B2 was tested, and the “stoichiometry N” value (cryo-EM structure [3]) was 2.

B3: capsid vertex-specific component 2 (CVC2; ORF34) (natural protein, UniProt P09287 1-579, looked up)
chain: MTARYGFGSISFPNKCGIFLSTTKNFIAPNFPIHYWTAPAFELRGRMNPDLEKNTLTLKNAAAVAALDNLRGETITLPTEIDRRLKPLEEQLTRMAKVLDSLETAAAEAEEADAQSEECTRTEIIRNESIHPEVQIAKNDAPLQYDTNFQVDFITLVYLGRARGNNSPGIVFGPWYRTLQERLVLDRPVAARGVDCKDGRISRTFMNTTVTCLQSAGRMYVGDRAYSAFECAVLCLYLMYRTSNSVHEPQVSSFGNLIEHLPEYTETFVNYMTTHENKNSYQFCYDRLPRDQFHARGGRYDQGALTSHSVMDALIRLQVLPPAPGQFNPGVNDIIDRNHTAYVDKIQQAAAAYLERAQNVFLMEDQTLLRLTIDTITALLLLRRLLWNGNVYGDKLKNNFQLGLIVSEATGTPTNNVILRGATGFDGKFKSGNNNFQFLCERYIAPLYTLNRTTELTEMFPGLVALCLDAHTQLSRGSLGRTVIDISSGQYQDRLISLIALELEHRRQNVTSLPIAAVVSIHDSVMLQYERGLGMLMHQPRVRAALEESRRLAQFNVNSDYDLLYFVCLGVIPQFASTP
With B3 the “stoichiometry N” value (cryo-EM structure [3]) was 2.

B4: major capsid protein (MCP; ORF40) (natural protein, UniProt P09245 1-1396, looked up)
chain: MTTVSCPANVITTTESDRIAGLFNIPAGIIPTGNVLSTIEVCAHRCIFDFFKQIRSDDNSLYSAQFDILLGTYCNTLNFVRFLELGLSVACICTKFPELAYVRDGVIQFEVQQPMIARDGPHPVDQPVHNYMVKRIHKRSLSAAFAIASEALSLLSNTYVDGTEIDSSLRIRAIQQMARNLRTVLDSFERGTADQLLGVLLEKAPPLSLLSPINKFQPEGHLNRVARAALLSDLKRRVCADMFFMTRHAREPRLISAYLSDMVSCTQPSVMVSRITHTNTRGRQVDGVLVTTATLKRQLLQGILQIDDTAADVPVTYGEMVLQGTNLVTALVMGKAVRGMDDVARHLLDITDPNTLNIPSIPPQSNSDSTTAGLPVNARVPADLVIVGDKLVFLEALERRVYQATRVAYPLIGNIDITFIMPMGVFQANSMDRYTRHAGDFSTVSEQDPRQFPPQGIFFYNKDGILTQLTLRDAMGTICHSSLLDVEATLVALRQQHLDRQCYFGVYVAEGTEDTLDVQMGRFMETWADMMPHHPHWVNEHLTILQFIAPSNPRLRFELNPAFDFFVAPGDVDLPGPQRPPEAMPTVNATLRIINGNIPVPLCPISFRDCRGTQLGLGRHTMTPATIKAVKDTFEDRAYPTIFYMLEAVIHGNERNFCALLRLLTQCIRGYWEQSHRVAFVNNFHMLMYITTYLGNGELPEVCINIYRDLLQHVRALRQTITDFTIQGEGHNGETSEALNNILTDDTFIAPILWDCDALIYRDEAARDRLPAIRVSGRNGYQALHFVDMAGHNFQRRDNVLIHGRPVRGDTGQGIPITPHHDREWGILSKIYYYIVIPAFSRGSCCTMGVRYDRLYPALQAVIVPEIPADEEAPTTPEDPRHPLHAHQLVPNSLNVYFHNAHLTVDGDALLTLQELMGDMAERTTAILVSSAPDAGAATATTRNMRIYDGALYHGLIMMAYQAYDETIATGTFFYPVPVNPLFACPEHLASLRGMTNARRVLAKMVPPIPPFLGANHHATIRQPVAYHVTHSKSDFNTLTYSLLGGYFKFTPISLTHQLRTGFHPGIAFTVVRQDRFATEQLLYAERASESYFVGQIQVHHHDAIGGVNFTLTQPRAHVDLGVGYTAVCATAALRCPLTDMGNTAQNLFFSRGGVPMLHDNVTESLRRITASGGRLNPTEPLPIFGGLRPATSAGIARGQASVCEFVAMPVSTDLQYFRTACNPRGRASGMLYMGDRDADIEAIMFDHTQSDVAYTDRATLNPWASQKHSYGDRLYNGTYNLTGASPIYSPCFKFFTPAEVNTNCNTLDRLLMEAKAVASQSSTDTEYQFKRPPGSTEMTQDPCGLFQEAYPPLCSSDAAMLRTAHAGETGADEVHLAQYLIRDASPLRGCLPLPR
With B4 the “stoichiometry N” value (cryo-EM structure [3]) was 6.
